Laboratory results from the supplement of paper PMC5998384.

System: HeLa Kyoto
Experiment: melting temperature (median over replicates), in situ; higher = more thermally stable
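Also: HeLa Kyoto cells synchronized by double thymidine or nocodazole block, proteins quantified by TMT10plex mass spectrometry, three independent biological replicates.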

Chain of ARF1 (chain, as listed by the source): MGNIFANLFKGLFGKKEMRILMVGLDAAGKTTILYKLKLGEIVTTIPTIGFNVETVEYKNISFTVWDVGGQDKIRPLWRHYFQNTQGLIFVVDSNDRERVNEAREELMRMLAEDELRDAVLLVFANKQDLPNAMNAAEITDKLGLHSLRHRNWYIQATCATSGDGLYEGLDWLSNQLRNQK
Chain of UBE2V1 (chain, as listed by the source): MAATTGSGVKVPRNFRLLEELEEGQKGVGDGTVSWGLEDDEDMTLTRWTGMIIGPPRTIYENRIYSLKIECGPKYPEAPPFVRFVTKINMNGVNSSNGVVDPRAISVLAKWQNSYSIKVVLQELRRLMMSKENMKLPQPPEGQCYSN

Substance	melting temperature (cell cycle stage: G1/S) [°C]	melting temperature (cell cycle stage: mitosis) [°C]
MAAGQNGHEEWVGSAYLFVESSLDKVVLSDAYAHPQQKVAVYRALQAALAESGGSPDVLQMLKIHRSDPQLIVQLRFCGRQPCGRFLRAYREGALRAALQRSLAAALAQHSVPLQLELRAGAERLDALLADEERCLSCILAQQPDRLRDEELAELEDALRNLKCGSGARGGDGEVASAPLQPPVPSLSEVKPPPPPPPAQTFLFQGQPVVNRPLSLKDQQTFARSVGLKWRKVGRSLQRGCRALRDPALDSLAYEYEREGLYEQAFQLLRRFVQAEGRRATLQRLVEALEENELTSLAEDLLGLTDPNGGLA [TRADD]	49.9	
MDCEVNNGSSLRDECITNLLVFGFLQSCSDNSFRRELDALGHELPVLAPQWEGYDELQTDGNRSSHSRLGRIEADSESQEDIIRNIARHLAQVGDSMDRSIPPGLVNGLALQLRNTSRSEEDRNRDLATALEQLLQAYPRDMEKEKTMLVLALLLAKKVASHTPSLLRDVFHTTVNFINQNLRTYVRSLARNGMD [BID]	52.8	55.5
ARF1	59.6	57.8
MAGSEPRSGTNSPPPPFSDWGRLEAAILSGWKTFWQSVSKERVARTTSREEVDEAASTLTRLPIDVQLYILSFLSPHDLCQLGSTNHYWNETVRDPILWRYFLLRDLPSWSSVDWKSLPDLEILKKPISEVTDGAFFDYMAVYRMCCPYTRRASKSSRPMYGAVTSFLHSLIIQNEPRFAMFGPGLEELNTSLVLSLMSSEELCPTAGLPQRQIDGIGSGVNFQLNNQHKFNILILYSTTRKERDRAREEHTSAVNKMFSRHNEGDDQQGSRYSVIPQIQKVCEVVDGFIYVANAEAHKRHEWQDEFSHIMAMTDPAFGSSGRPLLVLSCISQGDVKRMPCFYLAHELHLNLLNHPWLVQDTEAETLTGFLNGIEWILEEVESKRAR [FBXO4]		52
MQPPPPGPLGDCLRDWEDLQQDFQNIQETHRLYRLKLEELTKLQNNCTSSITRQKKRLQELALALKKCKPSLPAEAEGAAQELENQMKERQGLFFDMEAYLPKKNGLYLSLVLGNVNVTLLSKQAKFAYKDEYEKFKLYLTIILILISFTCRFLLNSRVTDAAFNFLLVWYYCTLTIRESILINNGSRIKGWWVFHHYVSTFLSGVMLTWPDGLMYQKFRNQFLSFSMYQSFVQFLQYYYQSGCLYRLRALGERHTMDLTVEGFQSWMWRGLTFLLPFLFFGHFWQLFNALTLFNLAQDPQCKEWQVLMCGFPFLLLFLGNFFTTLRVVHHKFHSQRHGSKKD [TMEM120A]	54.2	53.4
KIF1B	50.5	52.2
MGGCVGAQHDSSGSLNENSEGTGVALGRNQPLKKEKPKWKSDYPMTDGQLRSKRDEFWDTAPAFEGRKEIWDALKAAAHAFESNDHELAQAIIDGANITLPHGALTECYDELGNRYQLPVYCLAPPINMIEEKSDIETLDIPEPPPNSGYECQLRLRLSTGKDLKLVVRSTDTVFHMKRRLHAAEGVEPGSQRWFFSGRPLTDKMKFEELKIPKDYVVQVIVSQPVQNPTPVEN [UBTD2]		53.7
MALNGAEVDDFSWEPPTEAETKVLQARRERQDRISRLMGDYLLRGYRMLGETCADCGTILLQDKQRKIYCVACQELDSDVDKDNPALNAQAALSQAREHQLASASELPLGSRPAPQPPVPRPEHCEGAAAGLKAAQGPPAPAVPPNTDVMACTQTALLQKLTWASAELGSSTSLETSIQLCGLIRACAEALRSLQQLQH [SSSCA1]	53.3	53.5
MAGYEYVSPEQLAGFDKYKYSAVDTNPLSLYVMHPFWNTIVKVFPTWLAPNLITFSGFLLVVFNFLLMAYFDPDFYASAPGHKHVPDWVWIVVGILNFVAYTLDGVDGKQARRTNSSTPLGELFDHGLDSWSCVYFVVTVYSIFGRGSTGVSVFVLYLLLWVVLFSFILSHWEKYNTGILFLPWGYDISQVTISFVYIVTAVVGVEAWYEPFLFNFLYRDLFTAMIIGCALCVTLPMSLLNFFRSYKNNTLKLNSVYEAMVPLFSPCLLFILSTAWILWSPSDILELHPRVFYFMVGTAFANSTCQLIVCQMSSTRCPTLNWLLVPLFLVVLVVNLGVASYVESILLYTLTTAFTLAHIHYGVRVVKQLSSHFQIYPFSLRKPNSDULGMEEKNIGL [EPT1]	52.8	
MAPGRAVAGLLLLAAAGLGGVAEGPGLAFSEDVLSVFGANLSLSAAQLQHLLEQMGAASRVGVPEPGQLHFNQCLTAEEIFSLHGFSNATQITSSKFSVICPAVLQQLNFHPCEDRPKHKTRPSHSEVWGYGFLSVTIINLASLLGLILTPLIKKSYFPKILTFFVGLAIGTLFSNAIFQLIPEAFGFDPKVDSYVEKAVAVFGGFYLLFFFERMLKMLLKTYGQNGHTHFGNDNFGPQEKTHQPKALPAINGVTCYANPAVTEANGHIHFDNVSVVSLQDGKKEPSSCTCLKGPKLSEIGTIAWMITLCDALHNFIDGLAIGASCTLSLLQGLSTSIAILCEEFPHELGDFVILLNAGMSTRQALLFNFLSACSCYVGLAFGILVGNNFAPNIIFALAGGMFLYISLADMFPEMNDMLREKVTGRKTDFTFFMIQNAGMLTGFTAILLITLYAGEIELE [SLC39A8]	58.6	
MRRAGLGEGVPPGNYGNYGYANSGYSACEEENERLTESLRSKVTAIKSLSIEIGHEVKTQNKLLAEMDSQFDSTTGFLGKTMGKLKILSRGSQTKLLCYMMLFSLFVFFIIYWIIKLR [BET1]	54.7	54.9
TPK1	56.3	55.6
UBE2V1	54.2	
MCVRSCFQSPRLQWVWRTAFLKHTQRRHQGSHRWTHLGGSTYRAVIFDMGGVLIPSPGRVAAEWEVQNRIPSGTILKALMEGGENGPWMRFMRAEITAEGFLREFGRLCSEMLKTSVPVDSFFSLLTSERVAKQFPVMTEAITQIRAKGLQTAVLSNNFYLPNQKSFLPLDRKQFDVIVESCMEGICKPDPRIYKLCLEQLGLQPSESIFLDDLGTNLKEAARLGIHTIKVNDPETAVKELEALLGFTLRVGVPNTRPVKKTMEIPKDSLQKYLKDLLGIQTTGPLELLQFDHGQSNPTYYIRLANRDLVLRKKPPGTLLPSAHAIEREFRIMKALANAGVPVPNVLDLCEDSSVIGTPFYVMEYCPGLIYKDPSLPGLEPSHRRAIYTAMNTVLCKIHSVDLQAVGLEDYGKQGDYIPRQVRTWVKQYRASETSTIPAMERLIEWLPLHLPRQQRTTVVHGDFRLDNLVFHPEEPEVLAVLDWELSTLGDPLADVAYSCLAHYLPSSFPVLRGINDCDLTQLGIPAAEEYFRMYCLQMGLPPTENWNFYMAFSFFRVAAILQGVYKRSLTGQASSTYAEQTGKLTEFVSNLAWDFAVKEGFRVFKEMPFTNPLTRSYHTWARPQSQWCPTGSRSYSSVPEASPAHTSRGGLVISPESLSPPVRELYHRLKHFMEQRVYPAEPELQSHQASAARWSPSPLIEDLKEKAKAEGLWNLFLPLEADPEKKYGAGLTNVEYAHLCELMGTSLYAPEVCNCSAPDTGNMELLVRYGTEAQKARWLIPLLEGKARSCFAMTEPQVASSDATNIEASIREEDSFYVINGHKWWITGILDPRCQLCVFMGKTDPHAPRHRQQSVLLVPMDTPGIKIIRPLTVYGLEDAPGGHGEVRFEHVRVPKENMVLGPGRGFEIAQGRLGPGRIHHCMRLIGFSERALALMKARVKSRLAFGKPLVEQGTVLADIAQSRVEIEQARLLVLRAAHLMDLAGNKAAALDIAMIKMVAPSMASRVIDRAIQAFGAAGLSSDYPLAQFFTWARALRFADGPDEVHRATVAKLELKHRI [ACAD10]		50.7
MGFIFSKSMNESMKNQKEFMLMNARLQLERQLIMQSEMRERQMAMQIAWSREFLKYFGTFFGLAAISLTAGAIKKKKPAFLVPIVPLSFILTYQYDLGYGTLLERMKGEAEDILETEKSKLQLPRGMITFESIEKARKEQSRFFIDK [PLGRKT]	56.5	55.5
MSTRKRRGGAINSRQAQKRTREATSTPEISLEAEPIELVETAGDEIVDLTCESLEPVVVDLTHNDSVVIVDERRRPRRNARRLPQDHADSCVVSSDDEELSRDRDVYVTTHTPRNARDEGATGLRPSGTVSCPICMDGYSEIVQNGRLIVSTECGHVFCSQCLRDSLKNANTCPTCRKKINHKRYHPIYI [RNF4]	53.2	
